Data set [1] concerns the target BsaWI D145A (Bacillus stearothermophilus W1718). Nature of the data set: SEC; gel filtration at 5 μM loading concentration; Superdex column, room temperature, 20 mM Tris-HCl pH 7.4, 0.5 M NaCl, 5% glycerol; oligomeric state from the apparent Mw. In general terms: SEC sorts molecules by how far they enter the pores of the column.
Data set [2] addresses BsaWI D175A (Bacillus stearothermophilus W1718). The description is as above.
The target in data set [3] is BsaWI E128A (Bacillus stearothermophilus W1718).
For data set [4] the target is unchanged. Nature of the data set: SEC; gel filtration of the tetramerization interface mutants at up to 25 μM protein; Superdex column, room temperature, 20 mM Tris-HCl pH 7.4, 0.5 M NaCl, 5% glycerol.
Data set [5] has the same target. In words: SEC; gel filtration at 5 μM loading concentration; Superdex column, room temperature, 20 mM Tris-HCl pH 7.4, 0.5 M NaCl, 5% glycerol; oligomeric state from the apparent Mw.
The target is the same in data set [6]. Nature of the data set: native gel or EMSA; 1 nM 33P-labeled 30-bp SP duplex with 0.02-1000 nM protein, 40 mM Tris-acetate pH 8.3, 0.1 mg/ml BSA, 10% glycerol, 5 mM CaCl2, room temperature; oligomeric state of the DNA-bound protein read from the mobility of the complex. In general terms: Mobility shift assays separate free from complexed probe on a gel.
Data set [7] concerns the target BsaWI E128A&R130A (Bacillus stearothermophilus W1718).
For data set [8] the target is unchanged. Nature of the data set: SEC; gel filtration of the tetramerization interface mutants at up to 25 μM protein; Superdex column, room temperature, 20 mM Tris-HCl pH 7.4, 0.5 M NaCl, 5% glycerol.
Data set [9] has the same target. Nature of the data set: SEC; gel filtration at 5 μM loading concentration; Superdex column, room temperature, 20 mM Tris-HCl pH 7.4, 0.5 M NaCl, 5% glycerol; oligomeric state from the apparent Mw.
The target is the same in data set [10]. In words: native gel or EMSA; 1 nM 33P-labeled 30-bp SP duplex with 0.02-1000 nM protein, 40 mM Tris-acetate pH 8.3, 0.1 mg/ml BSA, 10% glycerol, 5 mM CaCl2, room temperature; oligomeric state of the DNA-bound protein read from the mobility of the complex.
In data set [11] the target is BsaWI E128A&W262A (Bacillus stearothermophilus W1718).
The target is the same in data set [12]. Nature of the data set: SEC; gel filtration of the tetramerization interface mutants at up to 25 μM protein; Superdex column, room temperature, 20 mM Tris-HCl pH 7.4, 0.5 M NaCl, 5% glycerol.
Data set [13] shares this target. In words: SEC; gel filtration at 5 μM loading concentration; Superdex column, room temperature, 20 mM Tris-HCl pH 7.4, 0.5 M NaCl, 5% glycerol; oligomeric state from the apparent Mw.
Data set [14] has the same target. Nature of the data set: native gel or EMSA; 1 nM 33P-labeled 30-bp SP duplex with 0.02-1000 nM protein, 40 mM Tris-acetate pH 8.3, 0.1 mg/ml BSA, 10% glycerol, 5 mM CaCl2, room temperature; oligomeric state of the DNA-bound protein read from the mobility of the complex.
In data set [15] the target is BsaWI K85A (Bacillus stearothermophilus W1718). Nature of the data set: SEC; gel filtration at 5 μM loading concentration; Superdex column, room temperature, 20 mM Tris-HCl pH 7.4, 0.5 M NaCl, 5% glycerol; oligomeric state from the apparent Mw.
Data set [16] deals with BsaWI R130A (Bacillus stearothermophilus W1718).
For data set [17] the target is unchanged. In words: SEC; gel filtration of the tetramerization interface mutants at up to 25 μM protein; Superdex column, room temperature, 20 mM Tris-HCl pH 7.4, 0.5 M NaCl, 5% glycerol.
Data set [18] shares this target. In words: SEC; gel filtration at 5 μM loading concentration; Superdex column, room temperature, 20 mM Tris-HCl pH 7.4, 0.5 M NaCl, 5% glycerol; oligomeric state from the apparent Mw.
Data set [19] shares this target. In words: native gel or EMSA; 1 nM 33P-labeled 30-bp SP duplex with 0.02-1000 nM protein, 40 mM Tris-acetate pH 8.3, 0.1 mg/ml BSA, 10% glycerol, 5 mM CaCl2, room temperature; oligomeric state of the DNA-bound protein read from the mobility of the complex.
Data set [20] concerns the target BsaWI R130A&R259A (Bacillus stearothermophilus W1718).
The target is the same in data set [21]. Nature of the data set: SEC; gel filtration of the tetramerization interface mutants at up to 25 μM protein; Superdex column, room temperature, 20 mM Tris-HCl pH 7.4, 0.5 M NaCl, 5% glycerol.
Data set [22] has the same target. In words: SEC; gel filtration at 5 μM loading concentration; Superdex column, room temperature, 20 mM Tris-HCl pH 7.4, 0.5 M NaCl, 5% glycerol; oligomeric state from the apparent Mw.
Data set [23] has the same target. In words: native gel or EMSA; 1 nM 33P-labeled 30-bp SP duplex with 0.02-1000 nM protein, 40 mM Tris-acetate pH 8.3, 0.1 mg/ml BSA, 10% glycerol, 5 mM CaCl2, room temperature; oligomeric state of the DNA-bound protein read from the mobility of the complex.
In data set [24] the target is BsaWI R259A (Bacillus stearothermophilus W1718).
Data set [25] shares this target. In words: SEC; gel filtration of the tetramerization interface mutants at up to 25 μM protein; Superdex column, room temperature, 20 mM Tris-HCl pH 7.4, 0.5 M NaCl, 5% glycerol.
Data set [26] shares this target. In words: SEC; gel filtration at 5 μM loading concentration; Superdex column, room temperature, 20 mM Tris-HCl pH 7.4, 0.5 M NaCl, 5% glycerol; oligomeric state from the apparent Mw.
For data set [27] the target is unchanged. Nature of the data set: native gel or EMSA; 1 nM 33P-labeled 30-bp SP duplex with 0.02-1000 nM protein, 40 mM Tris-acetate pH 8.3, 0.1 mg/ml BSA, 10% glycerol, 5 mM CaCl2, room temperature; oligomeric state of the DNA-bound protein read from the mobility of the complex.
Data set [28] deals with BsaWI R259A&W262A (Bacillus stearothermophilus W1718).
The target is the same in data set [29]. In words: SEC; gel filtration of the tetramerization interface mutants at up to 25 μM protein; Superdex column, room temperature, 20 mM Tris-HCl pH 7.4, 0.5 M NaCl, 5% glycerol.
For data set [30] the target is unchanged. Nature of the data set: SEC; gel filtration at 5 μM loading concentration; Superdex column, room temperature, 20 mM Tris-HCl pH 7.4, 0.5 M NaCl, 5% glycerol; oligomeric state from the apparent Mw.
Data set [31] has the same target. Nature of the data set: native gel or EMSA; 1 nM 33P-labeled 30-bp SP duplex with 0.02-1000 nM protein, 40 mM Tris-acetate pH 8.3, 0.1 mg/ml BSA, 10% glycerol, 5 mM CaCl2, room temperature; oligomeric state of the DNA-bound protein read from the mobility of the complex.
The target in data set [32] is restriction endonuclease BsaWI, wild type (Bacillus stearothermophilus W1718).
For data set [33] the target is unchanged. Nature of the data set: SEC; gel filtration at low loading concentrations (0.25-1 μM); Superdex column, room temperature, 20 mM Tris-HCl pH 7.4, 0.5 M NaCl, 5% glycerol.
For data set [34] the target is unchanged. Nature of the data set: SEC; gel filtration of the BsaWI-DNA complex with the 30 bp SP oligoduplex; Superdex column, room temperature, 20 mM Tris-HCl pH 7.4, 0.5 M NaCl, 5% glycerol.
Data set [35] has the same target. Nature of the data set: SEC; gel filtration at 2.5-5 μM loading concentration (concentration series); Superdex column, room temperature, 20 mM Tris-HCl pH 7.4, 0.5 M NaCl, 5% glycerol.
Data set [36] shares this target. Nature of the data set: SEC; gel filtration at 5 μM loading concentration; Superdex column, room temperature, 20 mM Tris-HCl pH 7.4, 0.5 M NaCl, 5% glycerol; oligomeric state from the apparent Mw.
For data set [37] the target is unchanged. In words: native gel or EMSA; 1 nM 33P-labeled 30-bp SP duplex with 0.02-1000 nM protein, 40 mM Tris-acetate pH 8.3, 0.1 mg/ml BSA, 10% glycerol, 5 mM CaCl2, room temperature; oligomeric state of the DNA-bound protein read from the mobility of the complex.
Data set [38] deals with T1, BsaWI wt (UniProt Q6UQ65 1-272).
T1 sequence: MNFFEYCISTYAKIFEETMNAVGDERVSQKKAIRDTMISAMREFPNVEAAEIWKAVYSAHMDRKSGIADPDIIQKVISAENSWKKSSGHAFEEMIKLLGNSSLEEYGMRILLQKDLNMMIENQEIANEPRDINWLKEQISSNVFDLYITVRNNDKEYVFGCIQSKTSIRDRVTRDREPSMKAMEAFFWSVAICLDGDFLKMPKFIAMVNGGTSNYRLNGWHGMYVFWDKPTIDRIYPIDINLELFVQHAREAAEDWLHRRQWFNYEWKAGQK
Nature of the data set: crystal structure; 0.02 M CaCl2 in crystallization buffer; no Ca2+ seen; pre-specific complex; 2.40 A; EMSA: 40 mM Tris-acetate pH 8.3, 0.1 mg/ml BSA, 10% glycerol, 5 mM CaCl2 or 0.1 mM EDTA, 1 nM DNA, room temperature, 15 min. The following applies: protein: recombinant; chain copies: 4; blunt; self-complementary, 2 copies of strand.

Data set [39] has as its target T1, BsaWI wt. In words: EMSA; 5 mM Ca2+; lower mobility complex; EMSA: 40 mM Tris-acetate pH 8.3, 0.1 mg/ml BSA, 10% glycerol, 5 mM CaCl2 or 0.1 mM EDTA, 1 nM DNA, room temperature, 15 min. Conditions: protein: recombinant; chain copies: 4; label: 33P; blunt.

Consider BsaWI D145A (enzyme), for which the stoichiometry N (in general, a count of units in the complex or per binding partner) in data set [1] stood at 4.

In the case of BsaWI D175A (enzyme), the stoichiometry N in [2] came out at 4.

BsaWI E128A (enzyme): the ratio of DNA cleavage rate constants kobs for the 2-site and 1-site substrates at optimal enzyme concentration in data set [3] is 17.9. Also, the stoichiometry N in [4], in data set [5] and in data set [6] was 2 each time.

With BsaWI E128A&R130A (enzyme), in [7], the ratio of DNA cleavage rate constants kobs for the 2-site and 1-site substrates at optimal enzyme concentration stood at 1.8. For the same molecule, the stoichiometry N in data set [8], in data set [9] and in [10] was 2 each time.

Take BsaWI E128A&W262A (enzyme): the ratio of DNA cleavage rate constants kobs for the 2-site and 1-site substrates at optimal enzyme concentration in data set [11] was 2.2. Besides, the stoichiometry N in data set [12], in data set [13] and in data set [14] was 2 each time.

Regarding BsaWI K85A (enzyme), in data set [15], the stoichiometry N is 4.

BsaWI R130A (enzyme): the ratio of DNA cleavage rate constants kobs for the 2-site and 1-site substrates at optimal enzyme concentration in [16] is 2.4. In addition, the stoichiometry N in data set [17], in [18] and in data set [19] was 2 in each case.

For BsaWI R130A&R259A (enzyme), the ratio of DNA cleavage rate constants kobs for the 2-site and 1-site substrates at optimal enzyme concentration in data set [20] was 1.1. For the same molecule, the stoichiometry N in [21], in data set [22] and in data set [23] was 2 each time.

BsaWI R259A (enzyme): the ratio of DNA cleavage rate constants kobs for the 2-site and 1-site substrates at optimal enzyme concentration in [24] came out at 14.4. For the same molecule, the stoichiometry N in data set [25], in [26] and in data set [27] was 2 throughout.

In the case of BsaWI R259A&W262A (enzyme), the ratio of DNA cleavage rate constants kobs for the 2-site and 1-site substrates at optimal enzyme concentration in data set [28] amounted to 2.2. The stoichiometry N in data set [29], in data set [30] and in data set [31] was 2 in each case.

On to “restriction endonuclease BsaWI, wild type (enzyme)”, for which the ratio of DNA cleavage rate constants kobs for the 2-site and 1-site substrates at optimal enzyme concentration in data set [32] was found to be 20.6. Besides, the stoichiometry N worked out at 2 in data set [33]; 4 in data set [34]; 4 in data set [35]; 4 in [36]; 4 in data set [37].

B1: SP14 (dsDNA)
DNA 1: CTCGACCGGTCGAG
DNA 2: CTCGACCGGTCGAG
For B1, in the data set with BsaWI wt [38], the binding result was “binds”.

B2: NSP (dsDNA)
DNA 1: AATGGGCTCGCACGCCTGGTATTATCGATTGTA
DNA 2: TACAATCGATAATACCAGGCGTGCGAGCCCATT
Regarding B2, the dissociation constant Kd (commonly a measure of binding affinity in units of concentration) with BsaWI wt [39] is roughly 10 nM.

Values taken from publication PMC4652773, “Functional significance of protein assemblies predicted by the crystal structure of the restriction endonuclease BsaWI”.
